Experimental findings from paper PMC4132707, “A dimeric state for PRC2” (Nucleic Acids Research, 2014) are described below.

The target in this test is T1, MBP-EZH2 (uncleavable MBP fusion, three-alanine linker) (human, UniProt Q15910-2 2-751).
T1 construct: forward primer starts at codon 2 after the three alanines, reverse primer holds the stop codon; A short linker of three alanine residues connects MBP and EZH2; no PreScission site between them; Present as a subunit of the co-purified PRC2 5m complex; also called tagged EZH2; MBP-tagged EZH2; source: Sf9, baculovirus, co-expressed and co-purified with the other PRC2 subunits (amylose resin, …)
Description: pull-down; called co-immunoprecipitation by the paper; 0.1 mg purified nucleic acid-free PRC2 5m co-expressed with both MBP-EZH2 (uncleavable) and untagged EZH2, bound to amylose beads 30 min at 4°C in 10 mM Tris-HCl pH 7.5, 250 mM NaCl, 1 mM TCEP, washed twice, eluted with 20 mM maltose; immunoblotting (semi-quantitative for EZH2). The settings on record: both partners purified.

T1 sequence (Q15910 other isoform, or with tags, fused parts or gaps): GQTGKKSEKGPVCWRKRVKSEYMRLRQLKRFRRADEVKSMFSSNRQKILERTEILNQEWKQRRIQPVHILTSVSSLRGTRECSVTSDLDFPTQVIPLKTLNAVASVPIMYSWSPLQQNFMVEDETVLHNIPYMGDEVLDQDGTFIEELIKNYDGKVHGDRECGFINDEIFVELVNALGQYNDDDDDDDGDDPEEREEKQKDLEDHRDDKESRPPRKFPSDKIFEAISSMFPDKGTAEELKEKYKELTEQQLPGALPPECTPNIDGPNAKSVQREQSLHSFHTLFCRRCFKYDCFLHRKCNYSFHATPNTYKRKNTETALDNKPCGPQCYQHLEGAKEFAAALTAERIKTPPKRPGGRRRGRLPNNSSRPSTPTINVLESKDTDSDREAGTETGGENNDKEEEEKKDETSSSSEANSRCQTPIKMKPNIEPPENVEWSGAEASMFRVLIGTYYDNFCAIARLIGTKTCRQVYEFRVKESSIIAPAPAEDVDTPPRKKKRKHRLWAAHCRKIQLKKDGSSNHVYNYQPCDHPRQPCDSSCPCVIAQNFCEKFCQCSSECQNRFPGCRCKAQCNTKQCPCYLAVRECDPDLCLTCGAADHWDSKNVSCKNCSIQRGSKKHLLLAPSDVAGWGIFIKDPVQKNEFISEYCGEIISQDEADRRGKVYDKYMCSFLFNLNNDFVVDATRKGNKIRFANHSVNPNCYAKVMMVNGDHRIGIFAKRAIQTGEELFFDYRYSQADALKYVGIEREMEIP

B1: EZH2, untagged (cleavable MBP tag removed) (natural protein)
chain: not shown
notes: forward primer starts at codon 2 (GQTGKKS), reverse primer holds the stop codon; Present as a subunit of the co-purified PRC2 complex, never isolated alone; also called untagged EZH2; source: Sf9, baculovirus, co-expressed and co-purified with the other PRC2 subunits (amylose resin, PreScission cleavage, SEC); not shown: His6, N-terminal, cleaved; MBP, N-terminal, cleaved
Take B1: the “ratio of tagged to untagged EZH2 in the MBP pull down” value was ~3 tagged:untagged.
